Measurements taken from patent publication US20050158748.

How the values were obtained:
[1] = molecular target: ribosomal protein S6 (in purified 40S ribosomal subunits from liver)
[2] = molecular target: synthetic peptide representing C-terminus of S6 protein

B1: EE-tag/p70β^S6k (p70β-II isoform, N-terminal EE-tag) (protein)
chain: MAAVFDLDLETEEGSEGEGEPELSPADACPLAELRAAGLEPVGHYEEVELTETSVNVGPERIGPHCFELLRVLGKGGYGKVFQVRKVQGTNLGKIYAMKVLRKAKIVRNAKDTAHTRAERNILESVKHPFIVELAYAFQTGGKLYLILECLSGGELFTHLEREGIFLEDTACFYLAEITLALGHLHSQGIIYRDLKPENIMLSSQGHIKLTDFGLCKESIHEGAVTHTFCGTIEYMAPEILVRSGHNRAVDWWSLGALMYDMLTGSPPFTAENRKKTMDKIIRGKLALPPYLTPDARDLVKKFLKRNPSQRIGGGPGDAADVQRHPFFRHMNWDDLLAWRVDPPFRPCLQSEEDVSQFDTRFTRQTPVDSPDDTALSESANQAFLGFTYVAPSVLDSIKEGFSFQPKLRSPRRLNSSPRVPVSPLKFSPFEGFRPSPSLPEPTELPLPPLLPPPPPSTTAPLPIRPPSGTKKSKRGRGRPGR
With B1 the “in vitro kinase reaction: phosphorylation of S6 protein in 40S subunits” value [1] was “p70β^S6k (p70β-II isoform) phosphorylates the S6 protein in vitro nearly as efficiently as p70α^S6k” and the “in vitro kinase reaction: phosphorylation of the synthetic peptide” value [2] was “p70β^S6k (p70β-II isoform) also phosphorylates this peptide but with slightly lower efficiency than observed with p70α^S6k”.
